{"source": "paper PMC11672753", "about": "(Plant Biotechnology Journal, 2024)", "binders": {"B1": {"name": "M15-YTE (antibody, V domains shown)", "VH": "QVQLLESGGGLVQPGGSLRLSCAASGFTFSSYAMSWVRQAPGKGLEWASAISGSGGSTYYADSVEGRFTISRDNSKNTLYLQMNSLRAEDTAVYYCAKDTGYCGDDCYIKLIRGGPDYWGQGTLVTVSS", "VL": "DIVMTQSPLSLPVTLGQPASISCRSSQSLVYSDGNTFLNWFQQRPGQSPRRLIYQVSNRDSGVPDRFSGSGSGTDFTLKISRVEAEDVGVYYCMQGTHWPRTFGQGTKLEIK"}, "B2": {"name": "M15 (plant-produced COVA2-15, conventional IgG1) (antibody, V domains shown)", "VH": "B1 VH", "VL": "B1 VL"}, "B3": {"name": "M15-FX (antibody, V domains shown)", "VH": "B1 VH", "VL": "B1 VL"}, "B4": {"name": "S15 (plant-produced COVA2-15, single-chain (sc)Fv-Fc format) (Fc fusion, human)", "VH": "B1 VH", "VL": "B1 VL"}, "B5": {"name": "M15-HDEL (antibody, V domains shown)", "VH": "B1 VH", "VL": "B1 VL"}, "B6": {"name": "S15-YTE (Fc fusion)", "VH": "B1 VH", "VL": "B1 VL"}, "B7": {"name": "S15-HDEL (Fc fusion)", "VH": "B1 VH", "VL": "B1 VL"}, "B8": {"name": "S15-FX (Fc fusion)", "VH": "B1 VH", "VL": "B1 VL"}}}
{"target": "T1, SARS-CoV-2 Spike Wuhan (recombinant) (SARS-CoV-2, Wuhan-Hu-1, UniProt P0DTC2)", "T1 construct": "also called recombinant SARS-CoV-2 Spike", "experiment": "ELISA; plates coated with 2 μg/mL SARS-CoV-2 Spike Wuhan in PBS; antibodies from 5 nM, 10-fold serial dilutions in PBS/0.5% BSA, 1 h RT; detected with goat anti-human IgG (H + L) peroxidase", "conditions": "both partners purified"}
{"binder": "B1", "binding result": "binds"}
{"binder": "B2", "binding result": "binds"}
{"binder": "B3", "binding result": "binds"}
{"binder": "B4", "binding result": "binds"}
{"binder": "B5", "binding result": "binds"}
{"binder": "B6", "binding result": "binds"}
{"binder": "B7", "binding result": "binds"}
{"binder": "B8", "binding result": "binds"}
